For assay [1], the target named is T1, Human EGFR (recombinant, soluble monomeric) (human, UniProt P00533 25-645).
T1 construct: also called EGFR antigen; recombinant human EGFR
Briefly: biolayer interferometry (Octet), antibody bound to cMET captured on NI-NTA sensors, then human EGFR. Background: In BLI a coated tip is dipped into the sample, and binding shifts an interference pattern.

In assay [2] the target is T2, Human cMET (recombinant, soluble monomeric) (human, UniProt P08581 25-932).
T2 construct: also called His-tagged cMET antigen
T2 sequence (P08581 25-932): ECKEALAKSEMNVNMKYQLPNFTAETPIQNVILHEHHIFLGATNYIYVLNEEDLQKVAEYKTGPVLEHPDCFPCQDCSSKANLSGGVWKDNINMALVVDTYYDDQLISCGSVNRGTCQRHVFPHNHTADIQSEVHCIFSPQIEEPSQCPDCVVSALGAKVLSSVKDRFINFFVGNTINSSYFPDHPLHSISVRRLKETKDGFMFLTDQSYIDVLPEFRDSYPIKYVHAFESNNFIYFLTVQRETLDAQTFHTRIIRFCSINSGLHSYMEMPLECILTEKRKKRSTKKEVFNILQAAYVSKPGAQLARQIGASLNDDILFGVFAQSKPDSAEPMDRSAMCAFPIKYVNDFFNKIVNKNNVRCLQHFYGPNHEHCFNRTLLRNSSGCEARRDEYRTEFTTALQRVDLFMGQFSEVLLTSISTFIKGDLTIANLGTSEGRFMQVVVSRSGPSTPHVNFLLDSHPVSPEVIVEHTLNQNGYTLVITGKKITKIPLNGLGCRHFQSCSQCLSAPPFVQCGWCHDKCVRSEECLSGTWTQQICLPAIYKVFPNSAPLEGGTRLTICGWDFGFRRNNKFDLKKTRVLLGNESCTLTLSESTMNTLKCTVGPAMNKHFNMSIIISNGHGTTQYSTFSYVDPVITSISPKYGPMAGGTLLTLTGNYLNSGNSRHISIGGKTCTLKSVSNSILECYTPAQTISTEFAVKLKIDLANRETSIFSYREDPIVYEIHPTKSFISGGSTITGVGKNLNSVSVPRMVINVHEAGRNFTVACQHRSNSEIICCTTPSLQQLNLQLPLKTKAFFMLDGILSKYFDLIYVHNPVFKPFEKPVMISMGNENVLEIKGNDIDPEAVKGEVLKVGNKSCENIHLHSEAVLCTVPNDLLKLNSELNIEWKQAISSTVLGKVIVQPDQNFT
Kind of assay: SPR (Biacore T200), antibody captured on anti-human IgG, soluble monomeric antigen as analyte, 25 C. How it is done: (§1) Mouse anti-human IgG was immobilized on a CM4 sensor chip with a final surface density of ˜2000 resonance units (RUs). A reference flow cell surface was also prepared on this sensor chip using identical immobilization protocol. Test and control article antibodies were prepared at 5-20 nM in instrument buffer (HBS-EP buffer; 0.01M HEPES, pH 7.4, 0.15M NaCl, 3 mM EDTA, and 0.005% P-20), along with 3-fold serial dilutions of purified EGFR (0.27-200 nM human, 0.4-900 nM cyno, and 4-1000 nM murine) or cMET proteins (0.27 to 66 nM human and 0.27-22 nM cyno) in instrument buffer. A sequential approach was utilized for kinetic measurements. Antibodies were first injected over the capture surface, at a flow rate of 10 μL/minute. Once the binding of the captured antibody stabilized, a single concentration of the analyte was injected over both capture and reference surfaces, at a flow rate of 75 μL/minute. The resulting binding response curves yielded the association phase data. Following the injection of analyte, the flow was then switched back to instrument buffer for 15 minutes to permit the collection of dissociation phase data, followed by a 1-minute pulse of 10 mM glycine, pH 1.5, to regenerate the antibody-captured surface on the chip. Binding responses against test and control article antibodies were recorded from duplicate injections of each concentration of analyte. In addition, several buffer injections were interspersed throughout the injection series. Select buffer injections were used along with the reference cell responses to correct the raw data sets for injection artifacts and/or nonspecific binding interactions, commonly referred to as “double referencing”. Corrected binding data were globally fit to a 1:1 binding model (Biacore T200 Evaluation software 2.0, GE Healthcare, Pittsburgh, PA).
(§2) Kinetic measurements to soluble monomeric forms of EGFR and cMET were performed using a BIACore instrument.
In general terms: SPR reads the build-up and loss of mass on a sensor chip optically.

Assay [3] deals with T3, Cynomolgus monkey cMET (recombinant, soluble monomeric) (cynomolgus monkey, UniProt A0M8R7 25-932 (Papio anubis entry)).
T3 construct: also called cyno c-Met
T3 sequence (A0M8R7 25-932 S170N/I621T): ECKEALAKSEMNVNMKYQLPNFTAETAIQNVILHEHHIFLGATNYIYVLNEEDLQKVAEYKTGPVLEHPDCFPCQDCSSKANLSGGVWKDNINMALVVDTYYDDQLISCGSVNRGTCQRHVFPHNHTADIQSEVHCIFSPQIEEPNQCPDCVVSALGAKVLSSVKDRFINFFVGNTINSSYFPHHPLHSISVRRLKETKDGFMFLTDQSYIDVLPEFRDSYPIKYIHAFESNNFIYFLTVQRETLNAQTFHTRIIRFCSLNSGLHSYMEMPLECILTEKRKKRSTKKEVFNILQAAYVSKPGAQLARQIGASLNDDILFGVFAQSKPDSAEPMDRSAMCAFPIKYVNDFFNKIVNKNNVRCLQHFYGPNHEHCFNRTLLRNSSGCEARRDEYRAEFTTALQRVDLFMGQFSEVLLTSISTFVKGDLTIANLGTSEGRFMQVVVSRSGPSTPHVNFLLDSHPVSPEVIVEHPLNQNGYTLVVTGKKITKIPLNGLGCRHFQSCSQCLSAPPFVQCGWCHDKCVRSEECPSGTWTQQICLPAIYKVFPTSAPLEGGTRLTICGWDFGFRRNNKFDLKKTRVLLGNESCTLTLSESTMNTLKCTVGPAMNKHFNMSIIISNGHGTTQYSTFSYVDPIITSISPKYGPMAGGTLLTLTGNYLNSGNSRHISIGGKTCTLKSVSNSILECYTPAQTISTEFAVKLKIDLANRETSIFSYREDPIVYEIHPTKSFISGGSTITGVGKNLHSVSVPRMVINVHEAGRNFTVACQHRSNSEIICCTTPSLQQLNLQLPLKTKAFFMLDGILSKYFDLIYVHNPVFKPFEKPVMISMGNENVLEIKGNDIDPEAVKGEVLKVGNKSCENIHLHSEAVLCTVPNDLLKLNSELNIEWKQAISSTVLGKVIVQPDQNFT
The assay is described as above. As for the experimental part: as §1, §2

Another assay concerns the target T4, HER2 (Homo sapiens (Human), UniProt P04626 23-652).
T4 construct: also called EGFR HER family protein HER2
Briefly: ELISA, antigen coated at 1 ug/mL, anti-human Fab-HRP detection, A450. In general terms: An ELISA detects its analyte on a solid surface through an enzyme-linked reagent.

The target of a further assay is T5, HER3 (Homo sapiens (Human), UniProt P21860 20-643).
T5 construct: also called EGFR HER family protein HER3
The description is as above.

A further assay addresses T6, HER4 (Homo sapiens (Human), UniProt Q15303 26-651).
T6 construct: also called EGFR HER family protein HER4
T6 sequence: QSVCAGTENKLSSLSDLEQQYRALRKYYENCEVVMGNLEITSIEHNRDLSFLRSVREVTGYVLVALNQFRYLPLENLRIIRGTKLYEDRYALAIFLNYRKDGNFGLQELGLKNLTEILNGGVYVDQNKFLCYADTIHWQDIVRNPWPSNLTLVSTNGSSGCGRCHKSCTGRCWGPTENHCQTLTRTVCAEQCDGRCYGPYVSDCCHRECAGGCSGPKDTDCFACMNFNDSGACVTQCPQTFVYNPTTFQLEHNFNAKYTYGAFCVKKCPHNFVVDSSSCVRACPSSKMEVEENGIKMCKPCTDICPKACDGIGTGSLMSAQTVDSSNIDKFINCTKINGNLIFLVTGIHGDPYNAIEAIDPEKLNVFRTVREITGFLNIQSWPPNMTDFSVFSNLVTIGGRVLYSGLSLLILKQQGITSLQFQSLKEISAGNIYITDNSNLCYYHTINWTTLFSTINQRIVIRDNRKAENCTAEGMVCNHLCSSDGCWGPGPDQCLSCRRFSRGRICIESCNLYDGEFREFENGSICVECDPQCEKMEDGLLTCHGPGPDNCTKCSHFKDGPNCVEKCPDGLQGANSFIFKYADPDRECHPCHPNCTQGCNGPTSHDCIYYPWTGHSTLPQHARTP
The assay is described as above.

The target in assay [4] is T7, Cynomolgus monkey EGFR (recombinant, soluble monomeric) (cynomolgus monkey, UniProt P55245 25-645 (rhesus entry)).
T7 construct: also called cyno EGFR
Described as above. As for the experimental part: (§3) Specificity for EGFR and cMET species paralogs and closely related family members was determined by ELISA. Briefly, antigen solutions were prepared in PBS at 1 μg/mL and 50 microliters was coated onto half area ELISA assay plates. Plates were washed and blocked with 1% BSA in PBS containing 0.005% Tween-20 (PBS-T) for one hour at room temperature. […] Wells were incubated with 50 microliters of the indicated primary antibodies diluted in PBS-T in a 1:3 dilution series, starting at 10 μg/mL and ending at 0.002 ug/mL, except for the HER4 binding mAb control, MAB1131, for which the series started at 1 μg/mL. The wells were washed 4 times in PBS-T, then 50 μl of goat anti-human Fab HRP-labeled secondary antibody, diluted 1:5000 in PBS-T, was added to each well and incubated for one hour at room temperature. […] 50 microliters of TMB stop solution was added to all wells and the absorbance was read at 450 nm on a SpectraMax M5 microplate reader. Data were analyzed in the SoftMax Pro 5 software and plotted using GraphPad Prism 7 graphing software.
(§4) To determine the species cross reactivity, ELISA assays were carried out as described above.

In another assay the target is Mouse cMET (recombinant) (mouse, UniProt P16056 25-931, limits assumed). The assay is described as above. As for the experimental part: as §3, §4
Chain of Mouse cMET (recombinant) (P16056 25-931 limits assumed): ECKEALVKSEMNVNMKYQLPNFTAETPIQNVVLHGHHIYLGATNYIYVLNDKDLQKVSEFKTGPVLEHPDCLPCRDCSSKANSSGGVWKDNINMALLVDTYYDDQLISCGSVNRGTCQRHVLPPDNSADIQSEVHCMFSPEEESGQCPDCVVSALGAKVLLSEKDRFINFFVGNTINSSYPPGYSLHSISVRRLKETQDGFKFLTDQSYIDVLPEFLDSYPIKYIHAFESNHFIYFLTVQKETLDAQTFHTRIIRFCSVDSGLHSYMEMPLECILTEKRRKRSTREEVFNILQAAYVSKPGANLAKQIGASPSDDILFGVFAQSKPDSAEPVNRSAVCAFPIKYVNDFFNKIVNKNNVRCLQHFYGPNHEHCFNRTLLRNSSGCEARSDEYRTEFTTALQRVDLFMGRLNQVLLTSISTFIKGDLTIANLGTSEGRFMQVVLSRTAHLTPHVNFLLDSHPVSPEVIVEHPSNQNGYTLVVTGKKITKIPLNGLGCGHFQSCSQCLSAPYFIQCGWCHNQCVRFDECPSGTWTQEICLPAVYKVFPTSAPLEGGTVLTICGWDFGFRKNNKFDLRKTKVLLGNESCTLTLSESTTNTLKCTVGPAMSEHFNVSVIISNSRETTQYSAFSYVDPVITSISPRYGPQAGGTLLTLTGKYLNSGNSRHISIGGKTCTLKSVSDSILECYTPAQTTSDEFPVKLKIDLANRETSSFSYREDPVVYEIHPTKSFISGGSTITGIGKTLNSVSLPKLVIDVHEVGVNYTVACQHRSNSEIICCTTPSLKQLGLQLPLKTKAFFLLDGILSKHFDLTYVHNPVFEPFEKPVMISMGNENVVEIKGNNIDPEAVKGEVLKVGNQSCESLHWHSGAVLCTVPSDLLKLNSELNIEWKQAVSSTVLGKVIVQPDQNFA
In assay [5] the target is T8, Mouse EGFR (recombinant, soluble monomeric) (mouse, UniProt Q01279 25-647).
T8 construct: also called murine EGFR
The description is as above. As for the experimental part: as §3, §4

Results on one molecule are retold here after patent US20240360226A1 (AstraZeneca / MedImmune, published 2024).

As usually defined, the Kd is the equilibrium constant for the complex coming apart. One may read the koff as a measure of how fast the partners let go of each other. What is called kon is the rate constant with which the complex forms.

B1: B09-57 IgG (antibody, V domains shown)
VH: QVQLVQSGAEVKKPGASVKVSCKASGYTFTDYYIHWVRQATGQGLEWMGWMNPNSGNTGYAQKFQGRVTMTRDTSISTAYMELSSLRSEDTAVYYCARGQGYTHSWGQGTMVTVSS
VL: DIQMTQSPSTLSASVGDRVTITCRASEGIYHWLAWYQQKPGKAPKLLIYKASSLASGVPSRFSGSGSGTEFTLTISSLQPDDFATYYCQQYSNYPPTFGGGTKLEIK
notes: also called B09-GL; anti-c-Met antibody clone B09-GL
Consider B1, for which the binding result in assay [1] is “no binding (tested: 500 nM EGFR)”; in the assay with HER2 it was “no binding (tested: 10 ug/ml)”; with HER3, “no binding (tested: 10 ug/ml)”; with HER4, “no binding (tested: 10 ug/ml)”; in [4] it was “no binding (tested: 10 ug/ml)”; with Mouse cMET (recombinant) it was “no binding (tested: 10 ug/ml)”. For the same molecule, the binding result in assay [5] is “no binding (tested: 10 ug/ml)”. In addition, the values for the dissociation constant Kd in assay [2] and in [3] were 1.6 nM and 1.9 nM, respectively. The figures for the koff in assay [2] and in [3] were 0.000882 s⁻¹ and 0.00194 s⁻¹, respectively. Moreover, the kon was found to be 563000 M⁻¹ s⁻¹ in [2] and 1.04e+06 M⁻¹ s⁻¹ in assay [3].
